# T1: Recombinant human CD40L (human, UniProt P29965 108-261, limits assumed)
# T1 construct: also called CD40 ligand
# T1 sequence (looked up): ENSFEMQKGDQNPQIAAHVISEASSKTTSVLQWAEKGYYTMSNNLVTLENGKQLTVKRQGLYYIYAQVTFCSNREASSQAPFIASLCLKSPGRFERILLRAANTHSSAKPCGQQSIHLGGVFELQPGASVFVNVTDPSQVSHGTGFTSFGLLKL
# Biological target: T1, Recombinant human CD40L
# Test: CD40L/CD40-Fc receptor binding assay;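 note: plate assay with coated human CD40-Fc, bound ligand detected via HRP anti-biotin antibody and TMB, OD at 450 nm, lower signal indicates stronger inhibition by dAb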
# Protocol: A 96 well Nunc Maxisorp assay plate was coated overnight at 4° C. with 100 μl per well of recombinant human CD40/Fc (R&D Systems) at 0.5 μg/ml in carbonate buffer. The plate was washed 3 times with 300 μl of 0.05% Tween/PBS and 3 times with 300 μl of PBS using a Tecan plate washer. The wells were blocked using 200 μl of PBS containing 2% (w/v) BSA and incubated for a minimum of 1 h at room temperature. The wells were washed as above, then 50 μl of purified dAb protein (or unpurified supernatant containing dAb from a micro-culture expression) was added to each well.
# The plate was washed as described above, then 100 μl HRP conjugated anti-biotin antibody (1:5000 dilution in diluent) added to each well and the plate incubated for 1 hr at room temperature. The plate was washed again as described above using a Tecan plate washer and the assay developed using 100 μl of SureBlue 1-Component TMB MicroWell Peroxidase solution (the plate was left at room temperature for up to 20 min). The reaction was stopped by the addition of 100 μl M hydrochloric acid. The OD₄₅₀ₙₘ of the plate was assayed within 30 minutes of acid addition. The OD₄₅₀ₙₘ is proportional to the amount of bound streptavidin-HRP conjugate, therefore the greater the degree of dAb inhibition the lower the OD₄₅₀ₙₘ of the resulting signal.
row,Binder,binding result
1,"DOM-72 (other, VH dAb) VH: EVQLLESGGGLVQPGGSLRLSCAASGFTFEAYPMSWVRQAPGKGLEWVSSISPLGLWTYYADSVKGRFTISRDNSKNTLYLQMNSLRAEDTAVYYCAKLSAGAETHVYRLFDYWGQGTLVTVSS",binds
2,"DOM-18 (other, VH dAb) VH: EVQLLESGGGLVQPGGSLRLSCAASGFTFPEYDMTWVRQAPGKGLEWVSYISSDGYSTYYADSVKGRFTISRDNSKNTLYLQMNSLRAEDTAVYYCAKPHGSPREFDYWGQGTLVTVSS",binds
3,"DOM-70 (other, VH dAb) VH: EVQLLESGGGLVQPGGSLRLSCAASGFTFENYAMSWVRQAPGKGLEWVSTIAPLGVPTYYADSVKGRFTISRDNSKNTLYLQMNSLRAEDTAVYYCAKKKVGAWLQSRSFDYWGQGTLVTVSS",binds
4,"DOM-71 (other, VH dAb) VH: EVQLLESGGGLVQPGGSLRLSCAASGFTFEGYPMSWVRQAPGKGLEWVSTISPLGPDTYYADSVKGRFTISRDNSKNTLYLQMNSLRAEDTAVYYCAKLLMGEYLNSRTFDYWGQGTLVTVSS",binds
5,"DOM-53 (other, Vk dAb) VL: DIQMTQSPSSLSASVGDRVTITCRASQAIYGGLRWYQQKPGKAPKLLIYGESMLQSGVPSRFSGSGSGTDFTLTISSLHPEDFATYYCQQVYHKPFTFGQGTKVEIKR",binds
6,"DOM-33 (other, Vk dAb) VL: DIQMTQSPSSLSASVGDRVTITCRASQTIGESLHWYQQKPGKAPRLLIYFASLLQSGVPSRFSGSGSGTDFTLTISSLQPEDFATYYCQQHHMLPSTFGQGTKVEIKR",binds
7,"DOM-34 (other, Vk dAb) VL: DIQMTQSPSSLSASVGDRVTITCRASQWIGDSLSWYQQKPGKAPKLLIYFASYLQSGVPTRFSGSGSGTDFTLTISSLQPEDFATYYCQQYFENPVTFGQGTKVGIKR",binds
8,"DOM-48 (other, Vk dAb) VL: DIQMTQSPSSLSASVGDRVTITCRASQWIGDSLSWYQQKPGKAPKLLIYFGSYLQNGVPSRFSGSGSGTDFTLTISSLQPEDFATYYCQQYMITPTTFGQGTKVEIKR",binds
9,"DOM-50 (other, Vk dAb) VL: DIQMTQSPSSLSASVGDRVTITCRASQWIGDSLSWYQQKPGKAPKLLIYFGSYLQSGVPSRFSGSGSGTDFTLTISSLQPEDSATYYCQQYQYVPSTFGQGTKVEIKQ",binds
10,"DOM-61 (other, VH dAb) VH: EVQLLESGGGLVQPGGSLRLSCAASGFTFAAYAMTWVRQAPGKGLEWVSYISPNGTATYYADSVKGRFTISRDNSKNTLYLQMNSLRAEDTAVYYCAEYVGMRWNSFDYWGQGTLVTVSS",binds
11,"DOM-40 (other, VH dAb) VH: EVQLLESGGGLVQPGGSLRLSCAASGFTFKAYDMGWVRQAPGKGLEWVSQIGRDGSFTYYADSVKGRFTISRDNSKNTLYLQMNSLRAEDTAVYYCAKPRRYAIFTFDRGQGTLVTVSS",binds
12,"DOM-81 (other, VH dAb) VH: EVQLLESGGGLVQPGGFLRLSCAASGFTFELYPMAWVRQAPGKGLEWVSSISPVGFLTYYADSVKGRFTISRDNSKNTLYLQMNSLRAEDTAVYYCAKGHEGSYTPRSAFDYWGQGTLVTVSS",binds
13,"DOM-16 (other, VH dAb) VH: EVQLLESGGGLVQPGGSLRLSCAASGFTFMEYAMIWVRQAPGKGLEWVSIISPLGLSTYYADSVKGRFTISRDNSKNTLYLQMNSLRAEDTAVYYCAKYQDSSDSQYTNFDYWGQGTLVTVSS",binds
14,"DOM-46 (other, VH dAb) VH: EVQLLESGGGLVQPGGSLRLSCAASGFTFELYAMAWVRQAPGKGLEWVSGIGAVGETTYYADSVKGRFTISRDNSKNTLYLQMNSLRAEDTAVYYCAKEANNLSDNLVFDYWGQGTLVTVSS",binds
15,"DOM-54 (other, VH dAb) VH: EVQLLESGGGLVQPGGSLRLSCAASGFTFTAYRMAWVRQAPGKGLEWVSWISPSGSGTYYADSVKGRFTISRDNSKNTLYLQMNSLRAEDTAVYYCAKTLTDSPSGHYEFDYWGQGTLVTVSS",binds
16,"DOM-75 (other, VH dAb) VH: EVQLLESGGGLVQPGGSLRLSCAASGFTFLQYPMGWVRQAPGKGLEWVSTISPVGLTTYYADSVKGRFTISRDNSKNTLYLQMNSLRAEDTAVYYCAKLFEGSRIQRDVGFDYWGQGTLVTVSS",binds
17,"DOM-59 (other, VH dAb) VH: EVQLLESGGGLVQPGGSLRLSCAASGFTFLDYAMGWVRQAPGKGLEWVSTISPMGMGTYYADSVKGRFTISRDNSKNTLYLQMNSLRAEDTAVYYCAKSSAISFTSDISNFDYWGQGTLVTVSS",binds
18,"DOM-44 (other, VH dAb) VH: EVQLLESGGGLVQPGGSLRLSCAASGFTFTSYEMGWVRQAPGKGLEWVSSIEPTGITTYYADSVKGRFTISRDNSKNTLYLQMNSLRAEDTAVYYCAKPHFTELGFDYWGQGTLVTVSS",binds
19,"DOM-13 (other, VH dAb) VH: EVQLLESGGGLVQPGGSLRLSCAASGFTFSYYSMYWVRQAPGKGLEWVSSISPFGWGTYYADSVKGRFTISRDNSKDTLYLQMNSLRAEDTAVYYCAKYGETSGPISENFDYWGQGTLVTVSS",binds
20,"DOM-45 (other, VH dAb) VH: EVQLLESGGGLVQPGGSLRLSCAASGFTFGNYAMAWVRQAPGKGLEWVSKIGAQGLHTYYAGSVKGRFTISRDNSKNTLYLQMNSLRAEDTAVYYCAKQTTMDYERFDYWGQGTLVTVSS",binds
21,"DOM-55 (other, VH dAb) VH: EVQLLESGGGLVQPGGSLRLSCAASGFTFARYEMGWVRQAPGKGLEWVSRITAQGLGTYYADSVKGRFTISRDNSKNTLYLQMNSLRAEDTAVYYCAKYLTDFSSGHQEFDYWGQGTLVTVSS",binds

# Now from value to binder:
row,binding result,Binder
1,binds,"DOM.88 (other, Vk dAb) VL: DIQMTQSPSSLSASVGDRVTITCRASQEIVEDLYWYQQKPGKAAKLLIYGASWLQSGVPSRFSGSGSGTDFTLTISSLQPEDFATYYCQQTRRRPYTFGQGTKVEIKR"
2,binds,"DOM-56 (other, VH dAb) VH: EVQLLESGGGLVQPGGSLRLSCAASGFTFNDYTMGWVRQAPGKGLEWVSWIHGTGGQTYYADSVKGRFTISRDNSKNTLYLQMNSLRAEDTAVYYCAKALADRSGGVVEFDYWGQGTLVTVSS"
3,binds,"DOM-12 (other, VH dAb) VH: EVQLLESGGGLVQPGGSLRLSCAASGFTFRLYEMAWVRQAPGKGLEWVSGIDILGSRTYYADSVKGRFTISRDNSKNTLYLQMNSLRAEDTAVYYCAKDLSWQGFDYWGQGTLVTVSS"
4,binds,"DOM-17 (other, VH dAb) VH: EVQLLESGGGLVQPGGSLRLSCAASGFTFEDYGMGWARQAPGKGLEWVSSIGPLGLWTYYADSAKGRFTISRDNSKNTLYLQMNSLRAEDTAVYYCAKSPLEGLITNFDYWGQGTLVTVSS"
5,binds,"DOM-82 (other, VH dAb) VH: EVQLLESGGGLVQPGGSLRLSCAASGFTFVAYPMAWVRQAPGKGLEWVSTIAPLGGNTYYADSVKGRFTISRDNSKNTLYLQMNSLRAEDTAVYYCAKRPEGLQIDSQNFDYWGQGTLVTVSS"
6,binds,"DOM-51 (other, Vk dAb) VL: DIQMTQSPSSLSASVGDRVTITCRASQPIVDELDWYQQKPGKAPKLLIYAASILQSGVPSRFSGSGSGTDFTLTISSLQPEDFATYYCHQWSTYPTTFGQGTKVEIKR"
7,binds,"DOM-32 (other, VH dAb) VH: EVQLLESGGGLVQPGGSLRLSCAASGFTFEVYQMGWVRQAPGKGLEWVSFIVPGGDLTYYADSVKGRFTISRDNSKNTLYLQMNSLRAEDTAVYYCAETWPEFDYWGQGTLVTVSS"
8,binds,"DOM-87 (other, Vk dAb) VL: DIQMTQSPSSLSASVGDRVTITCRASQDIDESLMWYQQKPGKAPRLLIYGVSYLQSGVPSRFSGSGSGTDFTLTISSLQPEDFATYYCQQRWKAPFTFGQGTKVEIKR"
9,binds,"DOM-39 (other, Vk dAb) VL: DIQMTQSPSSLSASVGDCVTITCRASQNIDGLLWWYQQKPGKAPKLLIYAGSGLQSGVPSRFSGSGSGTDFTLTISSLQPEDFATYYCQQKAFEPFTFGQGTKVEIKR"
10,binds,"DOM-85 (other, VH dAb) VH: EVQLLESGGGLVQPGGSLRLSCAASGFTFEQYDMRWVRQAPGKGLEWVSWIDEAGHETYYADSVKGRFTISRDNSRNTLYLQMNSLRAEDTAVYYCAKGMDGFDYWGQGTLVTVSS"
11,binds,"DOM-21 (other, VH dAb) VH: EVQLLESGGGLVQPGGSLRLSCAASGFTFANYEMGWARQAPGKGLEWVSVISEWGYSTYYADSAKGRFTISRDNSKNTLYLQMNSLRAEDTAVYYCAKLVGGTQYEFDYWGQGTLVTVSS"
12,binds,"DOM-69 (other, VH dAb) VH: EVQLLESGGGLVQPGGSLRLSCAASGFTFLDYGMAWVRQAPGKGLEWVSAISPLGLSTYYADSVKSRFTISRDNSKNTLYLQMNSLRAEDTAVYYCAKEVRVGRGVHPPKFDYWGQGTLVTVSS"
